Biological target: human PD-1 expressed on cells (CHO human PD-1 cells) (human) (UniProt Q15116)
Test: cell-based or functional assay

Sequence of human PD-1 expressed on cells (CHO human PD-1 cells) (human) (Q15116 21-288): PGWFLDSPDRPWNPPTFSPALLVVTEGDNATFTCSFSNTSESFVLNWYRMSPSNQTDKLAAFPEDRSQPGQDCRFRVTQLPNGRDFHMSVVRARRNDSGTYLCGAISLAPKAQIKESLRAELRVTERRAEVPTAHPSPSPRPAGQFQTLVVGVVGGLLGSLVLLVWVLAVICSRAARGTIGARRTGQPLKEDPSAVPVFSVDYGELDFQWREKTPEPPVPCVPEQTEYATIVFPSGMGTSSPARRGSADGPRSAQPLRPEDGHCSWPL

EC50 (M); human PD-1 reporter gene assay: 1e-08 M
EC50 (M); reporter assay: 1e-08 M
B1: 1.57-4GS-MSA binder (bispecific antibody, part only; not given: mouse serum albumin binding VH, part only)
chain, part: QVQLVESGGGLVKPGGSLRLSCAASGFTFSDNSMTWMRQAPGKGLEWVSYISSGGGVIFYADSVKGRFTISRDNAKNSLYLQMNSLRADDTAVYYCAREAPLRLGESPHDAFDISGQGTMVTVSSGGGGSGGGGSGGGGSGGGGS

From US20230357405A1
